The subject of the data set is wt GCase in HEK 293F supernatant. In words: GCase activity in supernatant of HEK 293F cells co‐expressing soluble LIMP‐2. The data set is classed as cell-based, human. The conditions noted are these: co‐expression with wt GCase, 0‐72 h after transfection, n = 3. The method, then: HEK 293F cells (ThermoFisher Scientific Inc., Waltham, MA, United States, #R79007) were cultivated in FreeStyle 293 expression medium (ThermoFisher Scientific Inc., Waltham, MA, United States, #12 338 018) in vented flat‐bottom Erlenmeyer flasks (ThermoFisher Scientific Inc., Waltham, MA, United States, #4115‐0125, #4115‐0250, #4115‐0500, #4115‐1000, #4115‐2000) on a MaxQ CO2 Plus orbital shaker (ThermoFisher Scientific Inc., Waltham, MA, United States, #88 881 102) at 125 rpm, 37 °C and 8% CO2. Regularly, the cell count was determined using a Cellometer Auto T4 Plus cell counter (Nexcelom Biocience LLC, Lawrence, Massachusetts, United States). […] For seeding, cells were counted and the desired cell number was transferred to 50 mL tubes. […]
Activity of GCase‐containing samples (recombinant protein, cell lysate, LE fractions, conditioned culture medium) was measured using the synthetic substrate 4‐methylumbelliferyl‐β‐D‐glucopyranoside (4MU, Merck Millipore, Billerica, MA, United States, #M3633). […] GCase activity was quantified via fluorescence of released 4‐methylumbelliferone (endpoint measurement) using an Infinite 200 Pro (TECAN, Männedorf, Switzerland), SpectraMax Gemini (Molecular Devices, San José, CA, United States) or ClarioStar (BMG LABTECH, Ortenberg, Germany) multiplate reader (λ ex: 365 nm; λ em: 445 nm). […]

B1: sLIMP‐2: secreted LIMP‐2 ectodomain, amino acids 36–431, N‐terminal IgK leader sequence, C‐terminal TEV‐cleavable 10xHis tag (protein)
chain: SIEKKIVLRNGTEAFDSWEKPPLPVYTQFYFFNVTNPEEILRGETPRVEEVGPYTYRELRNKANIQFGDNGTTISAVSNKAYVFERDQSVGDPKIDLIRTLNIPVLTVIEWSQVHFLREIIEAMLKAYQQKLFVTHTVDELLWGYKDEILSLIHVFRPDISPYFGLFYEKNGTNDGDYVFLTGEDSYLNFTKIVEWNGKTSLDWWITDKCNMINGTDGDSFHPLITKDEVLYVFPSDFCRSVYITFSDYESVQGLPAFRYKVPAEILANTSDNAGFCIPEGNCLGSGVLNVSICKNGAPIIMSFPHFYQADERFVSAIEGMHPNQEDHETFVDINPLTGIILKAAKRFQINIYVKKLDDFVETGDIRTMVFPVMYLNESVHIDKETASRLKSMINT
modifications: left off: Igκ leader sequence, N-terminal, state not stated | 10xHis (TEV-cleavable), C-terminal, kept
As for B1, the “GCase activity in supernatant over time” value is “GCase activity is higher and stable over the course of the measurements”.

Values taken from PMC11220700, “Activation and Purification of ß‐Glucocerebrosidase by Exploiting its Transporter LIMP‐2 – Implications for Novel Treatment Strategies in Gaucher's and Parkinson's Disease” (Advanced Science, 2024).
